# According to paper doi:10.1101/2025.03.04.641557 (bioRxiv, 2025):
# Where a chain is given by its changes, count along the chain named. In names and notes the source's numbering stands.
# B1: 3X-Flag tagged full length human MIDN^WT (midnolin, 468-aa isoform) (natural protein)
# chain: MEPQPGGARSCRRGAPGGACELGPAAEAAPMSLAIHSTTGTRYDLAVPPDETVEGLRKRLSQRLKVPKERLALLHKDTRLSSGKLQEFGVGDGSKLTLVPTVEAGLMSQASRPEQSVMQALESLTETQVSDFLSGRSPLTLALRVGDHMMFVQLQLAAQHAPLQHRHVLAAAAAAAAARGDPSIASPVSSPCRPVSSAARVPPVPTSPSPASPSPITAGSFRSHAASTTCPEQMDCSPTASSSASPGASTTSTPGASPAPRSRKPGAVIESFVNHAPGVFSGTFSGTLHPNCQDSSGRPRRDIGTILQILNDLLSATRHYQGMPPSLAQLRCHAQCSPASPAPDLAPRTTSCEKLTAAPSASLLQGQSQIRMCKPPGDRLRQTENRATRCKVERLQLLLQQKRLRRKARRDARGPYHWSPSRKAGRSDSSSSGGGGSPSEASGLGLDFEDSVWKPEVNPDIKSEFVVA
# B2: 3X-Flag tagged full length human MIDN K391A (purified) (natural protein)
# chain: B1 chain with K391A
# B3: 3X-Flag tagged full length human MIDN N385A (purified) (natural protein)
# chain: B1 chain with N385A
# B4: 3X-Flag tagged full length human MIDN L399K (purified) (natural protein)
# chain: B1 chain with L399K
# B5: 3X-Flag tagged full length human MIDN R406A (purified) (natural protein)
# chain: B1 chain with R406A
# B6: 3X-Flag tagged full length human MIDN L395K (purified) (natural protein)
# chain: B1 chain with L395K
# B7: 3X-Flag tagged full length human MIDN R403A (purified) (natural protein)
# chain: B1 chain with R403A
# Molecular target: HA-tagged MIDN^△α-Helix-C (human) (UniProt Q504T8)
# Test: co-IP
row,reduction of binding relative to WT MIDN [%],Molecule
1,60,Flag-tagged RPN11 (from UniProt O00487 1-310) (enzyme)

# Molecular target: human 26S proteasome (proteasome holoenzyme: 20S core particle with 19S regulatory particle) (human, UniProt P35998;P62191;P43686;P62333;P17980;P62195;Q13200;Q99460;O43242;O00232;O00231;Q15 …)
# Test: pull-down
row,binding result,Molecule
1,binds,B1
2,binds,B2
3,binds,B3
4,binds,B4
5,binds,B5
6,binds,B6
7,binds,B7
